Measurements: patent US20230091510A1, “ANTIBODY DRUG CONJUGATES HAVING LINKERS COMPRISING HYDROPHILIC GROUPS” (priority 2019, published 2023)
Where a SMILES comes first, the peptide text is derived from it. [ ]: non-standard residue; d: D form. The star is where a group is joined. Dolaproine = CO[C@@H]([C@@H]1CCCN1)[C@@H](C)C(=O)O; Dil = CC[C@H](C)[C@H](NC)[C@@H](CC(=O)O)OC; X1 = C[C@@H](N*)[C@@H](O)c1ccccc1; NMeV = CN[C@H](C(=O)O)C(C)C

Tests used:
HCC1954 cells = experiment: CellTiter-Glo inhibition of cell proliferation and survival, HCC1954; assay type: cell-based, human; settings: HCC-1954 cell line
Method: (§1) The antibody drug conjugates were tested against four endogenous cancer cell lines and one isogenic cell line engineered to overexpress the target of interest. FaDu (ATCC No. HTB-43 cultured in Eagle's Minimum Essential Medium+10% FBS), HCC70 (ATCC No. CRL-2315 cultured in RPMI-1640+10% FBS), HCC1954 (ATCC No. CRL-2338 cultured in RPMI-1640+10% FBS) and HT-29 (ATCC No. HTB-38 cultured in McCoy's 5a Medium Modified+10% FBS). The HT-29 cell line was transfected to generate a stable HT-29 cell line expressing the exogenous protein of interest, P-cadherin, HT-29 PCAD+(cultured in McCoy's 5a Medium Modified+10% FBS).
(§2) The ability of the P-cadherin linker variant antibody drug conjugates to inhibit cell proliferation and survival was assessed using the Promega CellTiter-Glo® proliferation assay.
(§3) The cell lines were cultured in media that is optimal for their growth at 5% CO2, 37° C. in a tissue culture incubator. […] Cell viability and cell density were determined using a cell counter (Vi-Cell XR Cell Viability Analyzer, Beckman Coulter). […] Plates were incubated at 5% CO2, 37° C. for 5 days in a tissue culture incubator, after which cell viability was assessed through the addition of 25 μL of CellTiter Glo® (Promega, cat #G7573), a reagent which lyses cells and measures total adenosine triphosphate (ATP) content. […]

FaDu cells = experiment: CellTiter-Glo inhibition of cell proliferation and survival, FaDu; assay type: cell-based, human; settings: FaDu cell line
Method: as §1, §2, §3

HT-29 cells = experiment: CellTiter-Glo inhibition of cell proliferation and survival, HT-29; assay type: cell-based, human; settings: HT-29 cell line
Method: as §1, §2, §3

HCC70 cells = experiment: CellTiter-Glo inhibition of cell proliferation and survival, HCC70; assay type: cell-based, human; settings: HCC-70 cell line
Method: as §1, §2, §3

[1] = molecular target: P-cadherin, exogenous, stably expressed on HT-29 PCAD+ cells (UniProt P22223 108-829, limits assumed); experiment: cell-based or functional assay
[2] = molecular target: P-cadherin, endogenous, on HCC70 human triple negative breast cancer cells (human, UniProt P22223 108-829); experiment: cell-based or functional assay
[3] = value from an individual representative assay

P-cadherin, exogenous, stably expressed on HT-29 PCAD+ cells, sequence (P22223 108-829 limits assumed): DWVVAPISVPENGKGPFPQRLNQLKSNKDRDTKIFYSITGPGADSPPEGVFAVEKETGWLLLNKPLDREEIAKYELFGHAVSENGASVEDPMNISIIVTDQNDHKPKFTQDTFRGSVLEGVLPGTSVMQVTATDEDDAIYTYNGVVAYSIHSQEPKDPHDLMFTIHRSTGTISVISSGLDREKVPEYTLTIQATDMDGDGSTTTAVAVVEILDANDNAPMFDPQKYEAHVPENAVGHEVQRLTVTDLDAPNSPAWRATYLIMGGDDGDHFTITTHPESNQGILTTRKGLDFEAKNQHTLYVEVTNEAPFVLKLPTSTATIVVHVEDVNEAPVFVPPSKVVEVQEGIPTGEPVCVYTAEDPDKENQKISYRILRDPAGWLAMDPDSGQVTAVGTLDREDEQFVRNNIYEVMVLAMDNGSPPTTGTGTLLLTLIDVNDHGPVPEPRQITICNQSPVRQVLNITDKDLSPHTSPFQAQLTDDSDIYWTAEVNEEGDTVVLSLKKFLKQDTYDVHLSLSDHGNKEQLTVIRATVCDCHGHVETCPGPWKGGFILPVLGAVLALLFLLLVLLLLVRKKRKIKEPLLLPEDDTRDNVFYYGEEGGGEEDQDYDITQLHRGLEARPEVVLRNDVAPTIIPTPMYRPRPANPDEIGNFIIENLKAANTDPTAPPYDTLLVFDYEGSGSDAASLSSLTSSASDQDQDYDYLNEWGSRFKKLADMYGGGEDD
P-cadherin, endogenous, on HCC70 human triple negative breast cancer cells, sequence (P22223 108-829): as the sequence (P22223 108-829 limits assumed) above

Row | Molecule | Amax (HCC1954 cells) | IC50 (HCC1954 cells; [3]) | Amax (FaDu cells) | IC50 (FaDu cells; [3]) | Amax (HT-29 cells) | IC50 (HT-29 cells; [3]) | Amax (HCC70 cells) | IC50 (HCC70 cells; [3]) | Amax, inhibition of cell proliferation and survival (CellTiter-Glo, 5 days), HT-29 PCAD+ cells [1] | IC50 (nM), inhibition of cell proliferation and survival (CellTiter-Glo, 5 days), HT-29 PCAD+ cells [1] | Amax, inhibition of cell proliferation and survival (CellTiter-Glo, 5 days), HCC70 cells [2] | IC50 (nM), inhibition of cell proliferation and survival (CellTiter-Glo, 5 days), HCC70 cells [2]
1 | CC[C@H](C)[C@@H]([C@@H](CC(=O)N1CCC[C@H]1[C@H](OC)[C@@H](C)C(=O)N[C@H](C)[C@@H](O)c1ccccc1)OC)N(C)C(=O)[C@@H](NC(=O)[C@@H](NC)C(C)C)C(C)C [Free MMAE, monomethyl auristatin E, reference compound] (H-[NMeV]V[Dil][Dolaproine]-X1) | 65.26 | 0.056 nM | 108.80 | 0.032 nM | 102.30 | 0.012 nM | 49.22 | 0.022 nM |  |  |  | 
2 | P-Cad mab2-L1-P1 (antibody, V domains shown, maleimide linker-drug L1-P1 on engineered Cys residues of the constant regions (positions not stated), DAR 3.8) VH: QVQLQQSGPGLVKPSQTLSLTCAISGDSVSSQSAAWNWIRQSPSRGLEWLGRIYYRSKWYNDYALSVKSRITINPDTSKNQFSLQLNSVTPEDTAVYYCARGEGYGREGFAIWGQGTLVTVSS VL: DIQMTQSPSSLSASVGDRVTITCRASQTISNTLAWYQQKPGKAPKLLIYAASNLQSGVPSRFSGSGSGTDFTLTISSLQPEDFATYYCQQYLSWFTFGQGTKVEIK |  |  |  |  |  |  |  |  | 90 | 0.077 nM | 65.1 | 0.237 nM
3 | P-Cad mab2-L2-P1 (antibody, V domains shown, maleimide linker-drug L2-P1 on engineered Cys residues of the constant regions (positions not stated), DAR 3.9) VH: QVQLQQSGPGLVKPSQTLSLTCAISGDSVSSQSAAWNWIRQSPSRGLEWLGRIYYRSKWYNDYALSVKSRITINPDTSKNQFSLQLNSVTPEDTAVYYCARGEGYGREGFAIWGQGTLVTVSS VL: DIQMTQSPSSLSASVGDRVTITCRASQTISNTLAWYQQKPGKAPKLLIYAASNLQSGVPSRFSGSGSGTDFTLTISSLQPEDFATYYCQQYLSWFTFGQGTKVEIK |  |  |  |  |  |  |  |  | 83.9 | 0.098 nM | 51 | 0.336 nM
4 | P-Cad mab2-L6-P1 (antibody, V domains shown, maleimide linker-drug L6-P1 on engineered Cys residues of the constant regions (positions not stated), DAR 3.8) VH: QVQLQQSGPGLVKPSQTLSLTCAISGDSVSSQSAAWNWIRQSPSRGLEWLGRIYYRSKWYNDYALSVKSRITINPDTSKNQFSLQLNSVTPEDTAVYYCARGEGYGREGFAIWGQGTLVTVSS VL: DIQMTQSPSSLSASVGDRVTITCRASQTISNTLAWYQQKPGKAPKLLIYAASNLQSGVPSRFSGSGSGTDFTLTISSLQPEDFATYYCQQYLSWFTFGQGTKVEIK |  |  |  |  |  |  |  |  | 102 | 0.069 nM | 80.2 | 0.209 nM
5 | PCAD-mab2-L7-P2 (antibody, V domains shown, linker-drug L7-P2 (structure and conjugation not described in the filing)) VH: QVQLQQSGPGLVKPSQTLSLTCAISGDSVSSQSAAWNWIRQSPSRGLEWLGRIYYRSKWYNDYALSVKSRITINPDTSKNQFSLQLNSVTPEDTAVYYCARGEGYGREGFAIWGQGTLVTVSS VL: DIQMTQSPSSLSASVGDRVTITCRASQTISNTLAWYQQKPGKAPKLLIYAASNLQSGVPSRFSGSGSGTDFTLTISSLQPEDFATYYCQQYLSWFTFGQGTKVEIK |  |  |  |  |  |  |  |  |  |  | 171 | 0.004 nM
6 | P-Cad mab2-L3-P1 (antibody, V domains shown, maleimide linker-drug L3-P1 on engineered Cys residues of the constant regions (positions not stated), DAR 4.0) VH: QVQLQQSGPGLVKPSQTLSLTCAISGDSVSSQSAAWNWIRQSPSRGLEWLGRIYYRSKWYNDYALSVKSRITINPDTSKNQFSLQLNSVTPEDTAVYYCARGEGYGREGFAIWGQGTLVTVSS VL: DIQMTQSPSSLSASVGDRVTITCRASQTISNTLAWYQQKPGKAPKLLIYAASNLQSGVPSRFSGSGSGTDFTLTISSLQPEDFATYYCQQYLSWFTFGQGTKVEIK |  |  |  |  |  |  |  |  | 86.8 | 0.083 nM | 105 | 1.35 nM
7 | P-Cad mab2-L5-P1 (antibody, V domains shown, maleimide linker-drug L5-P1 on engineered Cys residues of the constant regions (positions not stated), DAR 3.7) VH: QVQLQQSGPGLVKPSQTLSLTCAISGDSVSSQSAAWNWIRQSPSRGLEWLGRIYYRSKWYNDYALSVKSRITINPDTSKNQFSLQLNSVTPEDTAVYYCARGEGYGREGFAIWGQGTLVTVSS VL: DIQMTQSPSSLSASVGDRVTITCRASQTISNTLAWYQQKPGKAPKLLIYAASNLQSGVPSRFSGSGSGTDFTLTISSLQPEDFATYYCQQYLSWFTFGQGTKVEIK |  |  |  |  |  |  |  |  | 91.6 | 0.075 nM | 65.9 | 0.32 nM
8 | P-Cad mab2-L4-P1 (antibody, V domains shown, maleimide linker-drug L4-P1 on engineered Cys residues of the constant regions (positions not stated), DAR 3.9) VH: QVQLQQSGPGLVKPSQTLSLTCAISGDSVSSQSAAWNWIRQSPSRGLEWLGRIYYRSKWYNDYALSVKSRITINPDTSKNQFSLQLNSVTPEDTAVYYCARGEGYGREGFAIWGQGTLVTVSS VL: DIQMTQSPSSLSASVGDRVTITCRASQTISNTLAWYQQKPGKAPKLLIYAASNLQSGVPSRFSGSGSGTDFTLTISSLQPEDFATYYCQQYLSWFTFGQGTKVEIK |  |  |  |  |  |  |  |  | 86.2 | 0.117 nM | 57.2 | 0.467 nM
